According to publication PMC2783222 (2010):

What was measured:
ADAM23 [1] = biological target: T1, ADAM23 (Homo sapiens, UniProt O75077); assay: LGI1-AP fusion binding to transfected COS-7 cells, Scatchard
T1 chain: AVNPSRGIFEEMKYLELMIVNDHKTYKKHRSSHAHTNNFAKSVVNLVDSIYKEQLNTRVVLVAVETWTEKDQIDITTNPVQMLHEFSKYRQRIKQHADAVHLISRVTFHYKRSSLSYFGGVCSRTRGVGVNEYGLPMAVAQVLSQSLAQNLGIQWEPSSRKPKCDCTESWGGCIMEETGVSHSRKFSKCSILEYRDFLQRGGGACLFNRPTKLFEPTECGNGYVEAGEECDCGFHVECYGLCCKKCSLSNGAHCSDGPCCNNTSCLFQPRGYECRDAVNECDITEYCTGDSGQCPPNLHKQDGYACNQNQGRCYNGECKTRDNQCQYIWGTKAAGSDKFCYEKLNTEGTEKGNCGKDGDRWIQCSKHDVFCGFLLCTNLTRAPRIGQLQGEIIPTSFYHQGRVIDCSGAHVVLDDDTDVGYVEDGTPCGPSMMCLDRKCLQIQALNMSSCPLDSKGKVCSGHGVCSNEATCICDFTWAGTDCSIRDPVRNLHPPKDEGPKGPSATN

ADAM11 = biological target: T2, ADAM11 (Homo sapiens, UniProt O75078); assay: LGI1-AP fusion binding to transfected COS-7 cells
T2 chain: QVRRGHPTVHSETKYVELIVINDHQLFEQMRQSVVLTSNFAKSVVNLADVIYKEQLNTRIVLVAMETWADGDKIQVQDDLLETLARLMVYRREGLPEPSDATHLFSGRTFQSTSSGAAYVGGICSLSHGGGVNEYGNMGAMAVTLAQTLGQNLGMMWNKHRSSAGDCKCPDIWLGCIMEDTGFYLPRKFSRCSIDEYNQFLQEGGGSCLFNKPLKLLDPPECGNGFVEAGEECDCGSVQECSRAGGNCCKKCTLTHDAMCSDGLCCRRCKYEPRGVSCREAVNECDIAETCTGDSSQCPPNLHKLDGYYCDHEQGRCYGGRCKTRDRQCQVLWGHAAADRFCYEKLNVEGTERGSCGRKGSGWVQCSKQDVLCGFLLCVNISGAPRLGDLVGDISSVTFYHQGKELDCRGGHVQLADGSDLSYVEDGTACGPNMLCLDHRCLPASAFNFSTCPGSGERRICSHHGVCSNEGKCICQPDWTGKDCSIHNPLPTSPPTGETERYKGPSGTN

ADAM23 [2] = biological target: T1, ADAM23; assay: LGI1-AP fusion binding to transfected COS-7 cells
ADAM22 = biological target: T3, ADAM22 (Homo sapiens, UniProt Q9P0K1); assay: LGI1-AP fusion binding to transfected COS-7 cells
T3 chain: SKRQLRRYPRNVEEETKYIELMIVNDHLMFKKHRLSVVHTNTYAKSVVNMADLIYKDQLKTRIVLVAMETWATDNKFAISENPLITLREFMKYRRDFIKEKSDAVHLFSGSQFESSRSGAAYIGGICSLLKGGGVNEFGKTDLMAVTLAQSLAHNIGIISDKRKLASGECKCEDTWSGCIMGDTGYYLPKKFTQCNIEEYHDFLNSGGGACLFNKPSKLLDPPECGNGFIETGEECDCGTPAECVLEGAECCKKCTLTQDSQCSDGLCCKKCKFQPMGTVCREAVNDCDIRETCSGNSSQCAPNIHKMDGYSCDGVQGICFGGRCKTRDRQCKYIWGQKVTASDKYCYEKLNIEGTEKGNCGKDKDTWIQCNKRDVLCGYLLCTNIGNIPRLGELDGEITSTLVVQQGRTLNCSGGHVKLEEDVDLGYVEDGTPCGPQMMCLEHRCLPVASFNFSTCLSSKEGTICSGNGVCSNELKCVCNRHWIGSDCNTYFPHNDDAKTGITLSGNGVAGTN

- Kd (ADAM23 [1]): 10 nM
- Kd (ADAM11): 15 nM
- Kd (ADAM23 [2]): 15 nM
- Kd (ADAM22): 15 nM
B1: LGI1 (protein)
chain: KKPAKPKCPAVCTCTKDNALCENARSIPRTVPPDVISLSFVRSGFTEISEGSFLFTPSLQLLLFTSNSFDVISDDAFIGLPHLEYLFIENNNIKSISRHTFRGLKSLIHLSLANNNLQTLPKDIFKGLDSLTNVDLRGNSFNCDCKLKWLVEWLGHTNATVEDIYCEGPPEYKKRKINSLSSKDFDCIITEFAKSQDLPYQSLSIDTFSYLNDEYVVIAQPFTGKCIFLEWDHVEKTFRNYDNITGTSTVVCKPIVIETQLYVIVAQLFGGSHIYKRDSFANKFIKIQDIEILKIRKPNDIETFKIENNWYFVVADSSKAGFTTIYKWNGNGFYSHQSLHAWYRDTDVEYLEIVRTPQTLRTPHLILSSSSQRPVIYQWNKATQLFTNQTDIPNMEDVYAVKHFSVKGDVYICLTRFIGDSKVMKWGGSSFQDIQRMPSRGSMVFQPLQINNYQYAILGSDYSFTQVYNWDAEKAKFVKFQELNVQAPRSFTHVSINKRNFLFASSFKGNTQIYKHVIVDLSA
